Binding data for one sequence are collected here from publication PMC5521740.

This data set addresses T1, His-CRP (cAMP receptor protein) (Klebsiella pneumoniae NTUH-K2044) (UniProt A0ACD7U7W2).
T1 sequence: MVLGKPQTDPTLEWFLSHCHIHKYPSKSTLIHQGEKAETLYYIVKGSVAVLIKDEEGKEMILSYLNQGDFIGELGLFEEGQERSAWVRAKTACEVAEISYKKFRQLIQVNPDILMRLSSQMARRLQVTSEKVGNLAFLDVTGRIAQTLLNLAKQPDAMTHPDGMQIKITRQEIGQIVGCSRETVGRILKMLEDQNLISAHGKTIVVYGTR
Briefly: DNase I footprinting. The conditions noted are these: 5x binding buffer ([…], room temperature, 20 min ([…]) or 30 min ([…].

As to “ATACCGGCAGCTGCGAGTAATTTTACGTTTTTCATGGTGTTTGTCCTTTTAACTTTTATGGTGGAAAGCATGTTTGCTTTCGATGGACTTATAATAAGTCTGCTAACTATAACGCGCGTGGCAAAAAGTGCGATTTAGATCACATTTTTATGGCGGTTTGATGGCGTAAACATGATCGTTTATCTATTTTTTAATTTAAAAACAATCAATTAATGATTTGCTTCTGAAAGGGGGTATCACAT (double strand) [KP1_4563 promoter footprinting fragment]”, the binding result is listed as “binds”.
